Laboratory results from patent publication US20240398911A1.

Assays:
Assay in all cases: BLI, sACE22-IgG1 immobilized, RBD-8h analyte
[1] = molecular target: 8his-tagged RBD of the S protein of bat coronavirus isolate Rs4084 (bat coronavirus Rs4084)
[2] = molecular target: 8his-tagged RBD of the S protein of bat coronavirus isolate Rs7327 (bat coronavirus Rs7327)
[3] = molecular target: 8his-tagged RBD of the S protein of bat coronavirus isolate LYRa11 (bat coronavirus LYRa11)
[4] = molecular target: 8his-tagged RBD of the S protein of bat coronavirus isolate RsSHC014 (bat coronavirus RsSHC014)
[5] = molecular target: 8his-tagged RBD of the S protein of bat coronavirus isolate Rs4231 (bat coronavirus Rs4231)

Substance: wild type dimeric sACE22 (a.a. S19-G732) fused to the Fc of human IgG1 (from UniProt Q9BYF1 19-732) (Fc fusion)
- Kd [1]: 85 nM
- koff [1]: 0.025 s⁻¹
- kon [1]: 290000 M⁻¹ s⁻¹
- Kd [2]: 63 nM
- koff [2]: 0.04 s⁻¹
- kon [2]: 640000 M⁻¹ s⁻¹
- Kd [3]: 91 nM
- koff [3]: 0.079 s⁻¹
- kon [3]: 870000 M⁻¹ s⁻¹
- Kd [4]: 29 nM
- koff [4]: 0.026 s⁻¹
- kon [4]: 880000 M⁻¹ s⁻¹
- Kd [5]: 69 nM
- koff [5]: 0.022 s⁻¹
- kon [5]: 320000 M⁻¹ s⁻¹
